Reference: FireProtDB
Values joined by “and” are separate entries in the source; they are usually repeats but may differ in a detail not shown here. Identical values can stand only once.

B1: Decorsin, P17350 (parent)
chain: APRLPQCQGDDQEKCLCNKDECPPGQCRFPRGDADPYCE
B2: Serine hydroxymethyltransferase, P0A825 (parent)
chain: MLKREMNIADYDAELWQAMEQEKVRQEEHIELIASENYTSPRVMQAQGSQLTNKYAEGYPGKRYYGGCEYVDIVEQLAIDRAKELFGADYANVQPHSGSQANFAVYTALLEPGDTVLGMNLAHGGHLTHGSPVNFSGKLYNIVPYGIDATGHIDYADLEKQAKEHKPKMIIGGFSAYSGVVDWAKMREIADSIGAYLFVDMAHVAGLVAAGVYPNPVPHAHVVTTTTHKTLAGPRGGLILAKGGSEELYKKLNSAVFPGGQGGPLMHVIAGKAVALKEAMEPEFKTYQQQVAKNAKAMVEVFLERGYKVVSGGTDNHLFLVDLVDKNLTGKEADAALGRANITVNKNSVPNDPKSPFVTSGIRVGTPAITRRGFKEAEAKELAGWMCDVLDSINDEAVIERIKGKVLDICARYPVYA
B3: Tissue-type plasminogen activator, P00750 (parent)
chain: MDAMKRGLCCVLLLCGAVFVSPSQEIHARFRRGARSYQVICRDEKTQMIYQQHQSWLRPVLRSNRVEYCWCNSGRAQCHSVPVKSCSEPRCFNGGTCQQALYFSDFVCQCPEGFAGKCCEIDTRATCYEDQGISYRGTWSTAESGAECTNWNSSALAQKPYSGRRPDAIRLGLGNHNYCRNPDRDSKPWCYVFKAGKYSSEFCSTPACSEGNSDCYFGNGSAYRGTHSLTESGASCLPWNSMILIGKVYTAQNPSAQALGLGKHNYCRNPDGDAKPWCHVLKNRRLTWEYCDVPSCSTCGLRQYSQPQFRIKGGLFADIASHPWQAAIFAKHRRSPGERFLCGGILISSCWILSAAHCFQERFPPHHLTVILGRTYRVVPGEEEQKFEVEKYIVHKEFDDDTYDNDIALLQLKSDSSRCAQESSVVRTVCLPPADLQLPDWTECELSGYGKHEALSPFYSERLKEAHVRLYPSSRCTSQHLLNRTVTDNMLCAGDTRSGGPQANLHDACQGDSGGPLVCLNDGRMTLVGIISWGLGCGQKDVPGVYTKVTNYLDWIRDNMRP
B4: Proteinase inhibitor, Q03026 (parent)
chain: MSASAKLSRMVCLLCGFFSTGISMASSLILLSASDLAGQWTLQQDEAPAICHLELRDSEVAEASGYDLGGDTACLTRWLPSEPRAWRPTPAGIALLERGGLTLMLLGRQGEGDYRVQKGDGGQLVLRRATP
B5: Protein GrpE, Q65H53 (parent)
chain: MAEEKQNEELNEQEELNETEAETAEAEQTAAEADAPAEETQTEMLEKQLKELQERLEEKENKLLRVQADFENYKRRARLDLEAAEKYRSQRIISDLLPALDNFERALQIDPDNEQTKSLLQGMEMVHRQILEALKNEGVEQIPSVGEQFDPNMHQAVMQVEDEAYESNAVVEELQKGYKLKDRVIRPSMVKVNQ
B6: Azurin, P00282 (parent)
chain: MLRKLAAVSLLSLLSAPLLAAECSVDIQGNDQMQFNTNAITVDKSCKQFTVNLSHPGNLPKNVMGHNWVLSTAADMQGVVTDGMASGLDKDYLKPDDSRVIAHTKLIGSGEKDSVTFDVSKLKEGEQYMFFCTFPGHSALMKGTLTLK
B7: Cocaine esterase, Q9L9D7 (parent)
chain: MVDGNYSVASNVMVPMRDGVRLAVDLYRPDADGPVPVLLVRNPYDKFDVFAWSTQSTNWLEFVRDGYAVVIQDTRGLFASEGEFVPHVDDEADAEDTLSWILEQAWCDGNVGMFGVSYLGVTQWQAAVSGVGGLKAIAPSMASADLYRAPWYGPGGALSVEALLGWSALIGTGLITSRSDARPEDAADFVQLAAILNDVAGAASVTPLAEQPLLGRLIPWVIDQVVDHPDNDESWQSISLFERLGGLATPALITAGWYDGFVGESLRTFVAVKDNADARLVVGPWSHSNLTGRNADRKFGIAATYPIQEATTMHKAFFDRHLRGETDALAGVPKVRLFVMGIDEWRDETDWPLPDTAYTPFYLGGSGAANTSTGGGTLSTSISGTESADTYLYDPADPVPSLGGTLLFHNGDNGPADQRPIHDRDDVLCYSTEVLTDPVEVTGTVSARLFVSSSAVDTDFTAKLVDVFPDGRAIALCDGIVRMRYRETLVNPTLIEAGEIYEVAIDMLATSNVFLPGHRIMVQVSSSNFPKYDRNSNTGGVIAREQLEEMCTAVNRIHRGPEHPSHIVLPIIKR

Variants of: B1
Settings: Macrobdella decora; pH 7; Thermal; CD; Na2HPO4 10 mM; reversible: Yes; structure 1DEC; whole UniProt chain shown

Variant	Tm [°C]	change of melting temperature, mutant - wild type (higher = more stable) [°C]
P23A	66.5	-7.5

Variants of: B2
Settings: Escherichia coli (strain K12); pH 7.5; 30 °C; Urea; Fluorescence; Tris-HCl 20 mM; structure 1DFO; whole UniProt chain shown

Variant	unfolding free energy [kcal/mol]
W16F W183F	5.9
W16Y	3.7
W385F	4

Same assay, conditions: Escherichia coli (strain K12); pH 7.5; 30 °C; Urea; Fluorescence; Tris-HCl 20 mM; transition: 3; structure 1DFO; whole UniProt chain shown

Variant	unfolding free energy
W183F W385F	4.2 kcal/mol and 5.5 kcal/mol

Variants of: B3
Settings: Homo sapiens; pH 4.5; Thermal; CD; Unknown; structure 1PK2; whole UniProt chain shown

Variant	unfolding free energy [kcal/mol]
H264Y	2.9
H264Y R268G	3.4

Same assay, conditions: Homo sapiens; pH 7.4; Thermal; DSC; sodium Phosphate 10 mM; structure 1PML; whole UniProt chain shown

Variant	Tm [°C]	change of melting temperature, mutant - wild type (higher = more stable) [°C]	unfolding enthalpy (calorimetric) [kcal/mol]
W277F	58.5	-17.1	40
W277H	56.6	-19	56
W277Y	63.3	-12.3	45

Variants of: B4
Settings: Pseudomonas aeruginosa (strain ATCC 15692 / DSM 22644 / CIP 104116 / JCM 14847 / LMG 12228 / 1C / PRS 101 / PAO1); pH 7.1; 25 °C; GdnHCl; CD; Tris-HCl 50 mM; reversible: yes (75%); structure 2RN4; whole UniProt chain shown

Variant	ddG of mutation (higher = less stable) [kcal/mol]	unfolding free energy [kcal/mol]
A33P	-3.2	7
D35A	-2.7	6.5
W40F	-1.1	4.9

Same assay, conditions: Pseudomonas aeruginosa (strain ATCC 15692 / DSM 22644 / CIP 104116 / JCM 14847 / LMG 12228 / 1C / PRS 101 / PAO1); pH 7.1; Thermal; CD; sodium phosphate 20 mM; NaCl 0.1 M; reversible: yes (75%); structure 2RN4; whole UniProt chain shown

Variant	Tm [°C]	change of melting temperature, mutant - wild type (higher = more stable) [°C]	unfolding enthalpy (van 't Hoff) [kcal/mol]
D35A	81.5	17.7	84.5

Variants of: B5
Settings: Bacillus licheniformis (strain ATCC 14580 / DSM 13 / JCM 2505 / CCUG 7422 / NBRC 12200 / NCIMB 9375 / NCTC 10341 / NRRL NRS-1264 / Gibson 46…; pH 7; Thermal; CD; Hepes 10 mM; reversible: Yes; whole UniProt chain shown

Variant	Tm [°C]	change of melting temperature, mutant - wild type (higher = more stable) [°C]	unfolding enthalpy (van 't Hoff) [kcal/mol]
L52P	40.1	-11.9	37.5
L134H	43.2	-8.8	21

Variants of: B6
Settings: Pseudomonas aeruginosa (strain ATCC 15692 / DSM 22644 / CIP 104116 / JCM 14847 / LMG 12228 / 1C / PRS 101 / PAO1); pH 7; 20 °C; GdnHCl; CD; phosphate 5 mM; reversible: yes; structure 5AZU; whole UniProt chain shown

Variant	denaturant m value [kcal/mol/M]	denaturant midpoint (higher = more stable) [M]	unfolding free energy [kcal/mol]
H66G	3.94	1.1	4.35

Same assay, conditions: Pseudomonas aeruginosa (strain ATCC 15692 / DSM 22644 / CIP 104116 / JCM 14847 / LMG 12228 / 1C / PRS 101 / PAO1); pH 7.5; 40 °C; GdnHCl; Fluorescence; Tris Cl 2 mM; reversible: Yes; structure 5AZU; whole UniProt chain shown

Variant	ddG of mutation (higher = less stable) [kcal/mol]	unfolding free energy [kcal/mol]
I27S	6.4	2.2
F130S	6.4	2.2

Variants of: B7
Settings: Rhodococcus sp. (strain MB1 Bresler); pH 8; Thermal; Fluorescence; Tris 50 mM; structure 1JU3; whole UniProt chain shown

Variant	Tm [°C]	change of melting temperature, mutant - wild type (higher = more stable) [°C]
L169K	41.1	6.3
T172R G173Q	41.2	6.41
G173Q	37.7	2.97
